Reference: a protein production outcome set (Wang et al. 2014)

Experiment: label from the status in PepcDB records

Sequence	protein production
MDALQLLTWSLILYLFASLASLFLLGLDRLAIKLSGITSLVGGVIGIISGITQLHAGVTLVARFAPPFEFADLTLRMDSLSAFMVLVISLLVVVCSLYSLTYMREYEGKGAAAMGFFMNIFIASMVALLVMDNAFWFIVLFEMMSLSSWFLVIARQDKTSINAGMLYFFIAHAGSVLIMIAFLLMGRESGSLDFASFRTLSLSPGLASAVFLLAFFGFGAKAGMMPLHSWLPRAHPAAPSHASALMSGVMVKIGIFGILKVAMDLLAQTGLPLWWGILVMAIGAISALLGVLYALAEQDIKRLLAWSTVENVGIILLAVGVAMVGLSLHDPLLTVVGLLGALFHLLNHALFKGLLFLGAGAIISRLHTHDMEKMGALAKRMPWTAAACLIGCLAISAIPPLNGFISEWYTWQSLFSLSRVEAVALQLAGPIAMVMLAVTGGLAVMCFVKMYGITFCGAPRSTHAEEAQEVPNTMIVAMLLLAALCVLIALSASWLAPKIMHIAHAFTNTPPATVASGIALVPGTFHTQVTPSLLLLLLLAMPLLPGLYWLWCRSRRAAFRRTGDAWACGYGWENAMAPSGNGVMQPLRVVFSALFRLRQQLDPTLRLNKGLAHVTARAQSTEPFWDERVIRPIVSATQRLAKEIQHLQSGDFRLYCLYVVAALVVLLIAIAV	failed
MDALVSTKANSIAYQRSTVIIPAYNEEKRLMPVLYELCEYIRSNSLEWKVMVSIDGDDGTESNVKIMMQEYSFLSYSKGKGRGGKGAAIKRAITSATGEFVILMDADGSVPLKEIVKALDLTNYYDLIIFDRYSNRGNRIPFIRRFPSRGFNKLVRIFLGLKINDTQCGYKIIKREYAQRAFNKITISNAFFDVALLYYLKKERAKYIEIPVEYNYDRNSKFHVVELVLGEGISLIAFRIRNSRFYKYVPEKLISLYYRKFRWILEHHHHHH	not failed
MDASDDSLIGRITEVRAGRFAARLLSDEEGFRNEVSLGDEVQHPGQVGTYVSIRNGTFRILALVREVSGGAAGSAAGSAMQLVPLGEFNDKGAFSRGVRRYPVPGAEVHAASPQEINAVFARTRNLRFNPGYLPNHPATGVYLDPSALCSRHFAILGQSGAGKSWTVASLLQRMLASAPRAHIILLDLHGEYCWRGADGVLHSTFPPMATRAMDARELEIPYWLMSFAELVDLLIERDDPAASIQTAFLRETVFELKRRSARELGLEGVSIDAPVYFSLQEVYERFKEANEHRTDFGKTKGPLFGQFDDFLLKLGSRLHDVRYDFLLNPARRTRSESLPDLLRDFVGLGEPRCQISVIDLSPVPFDVRPTVSAQIGRLAFEFNYWNLDRREFPILLVCEEAHTYIPRERATQYEGTRKSMERIAKEGRKYGVGLAVVSQRPHELSETVLSQCGSYICLRISNPDDQAYVRKLVPEGEADLVDVLTALGRGEALILGEATPLPVRCQIFRPDPPPNSNDVDFHKAWNADTANLDIGAIVRRWWNQGR	failed
MDAYSWLLAVIILLPLISASVPIAASVRWKNVGWAIAAVVVSATFAMSVALAWMVPRAEDRLLAHQLGGVEVPIGIELFADEFSVIVLLLVLAVCLGVLVFTRIGGPRGNAFYSGFLLLVGGMMGILLTGDLFNMYVFLEIMAISSYALVSASKYRWSTYAAFKYLLVGTVGAGFYLLGVALVLASTGTLTMRLLPELLAAVGYTDPVVVAAFILMAVGLAIKIALFPVHTWLADAHASAPDGISAVISALVPAVAVYAFARVLFTVYTLDFIAANPVIGNLLLVAALFSLFAGSFFALLQDHIKLVLAYSTVSQFGLIFVGIAIANETAVFGAILQIFGHGVVKASLFVLAGMFALRFGGIRTLKEYSGVAERAPIMAGAFAVLGIAMIGLPPTVGFAGKWYIALGAFEAGLWQVSLLVLGSTLLSAGYILPFINRIYFHPFEGEDVDAAKVTTGMLIAIIIGAGIGLLLGFASAEIQAAVSTAVERLVA	failed
